From US8840891 (RSR, dated 2014)
Where two headings read alike, the source gives them in different places.

How the values were obtained:
Assay in all cases: cell-based or functional assay
[1] = molecular target: TSHR with Asp151 mutated to Arginine (human) (UniProt P16473)
[2] = molecular target: wild type human TSHR (human) (UniProt P16473)
[3] = molecular target: TSHR with Arg255 mutated to Aspartic acid (human) (UniProt P16473)
[4] = molecular target: wild type human TSHR (human) (UniProt P16473); remark: listed apart in the source

5C9 IgG (antibody), sequence (VH): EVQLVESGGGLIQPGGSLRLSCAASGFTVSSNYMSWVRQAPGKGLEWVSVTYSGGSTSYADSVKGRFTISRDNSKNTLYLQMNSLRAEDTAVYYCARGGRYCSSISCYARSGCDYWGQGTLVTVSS
5C9 IgG (antibody), sequence (VL): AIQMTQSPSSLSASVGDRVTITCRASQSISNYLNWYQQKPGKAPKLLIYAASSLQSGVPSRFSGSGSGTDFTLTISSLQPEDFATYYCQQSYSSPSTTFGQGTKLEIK

Substance: 5C9 IgG (antibody)
- Mutated/wild type (%); 5C9 0.01 µg/mL + TSH [1]: 148%
- Mutated/wild type (%); 5C9 0.1 µg/mL + TSH [1]: 158%
- Mutated/wild type (%); 5C9 1.0 µg/mL + TSH [1]: 94%
- Mutated/wild type (%); 5C9 10 µg/mL + TSH [1]: 132%
- Mutated/wild type (%); 5C9 100 µg/mL + TSH [1]: 148%
- Mutated/wild type (%); 5C9 100 µg/mL only [1]: 157%
- cyclic AMP; 5C9 0.01 µg/mL + TSH (fmol/cell well) [1]: 18300
- cyclic AMP; 5C9 0.1 µg/mL + TSH (fmol/cell well) [1]: 10600
- cyclic AMP; 5C9 1.0 µg/mL + TSH (fmol/cell well) [1]: 2590
- cyclic AMP; 5C9 10 µg/mL + TSH (fmol/cell well) [1]: 1610
- cyclic AMP; 5C9 100 µg/mL + TSH (fmol/cell well) [1]: 2330
- cyclic AMP; 5C9 100 µg/mL only (fmol/cell well) [1]: 409
- cyclic AMP; 5C9 0.01 µg/mL + TSH (fmol/cell well) [2]: 12400
- cyclic AMP; 5C9 0.1 µg/mL + TSH (fmol/cell well) [2]: 6690
- cyclic AMP; 5C9 1.0 µg/mL + TSH (fmol/cell well) [2]: 2750
- cyclic AMP; 5C9 10 µg/mL + TSH (fmol/cell well) [2]: 1220
- cyclic AMP; 5C9 100 µg/mL + TSH (fmol/cell well) [2]: 1570
- cyclic AMP; 5C9 100 µg/mL only (fmol/cell well) [2]: 260
- Mutated/wild type (%); 5C9 0.01 µg/mL + TSH [3]: 89%
- Mutated/wild type (%); 5C9 0.1 µg/mL + TSH [3]: 85%
- Mutated/wild type (%); 5C9 1.0 µg/mL + TSH [3]: 57%
- Mutated/wild type (%); 5C9 10 µg/mL + TSH [3]: 59%
- Mutated/wild type (%); 5C9 100 µg/mL + TSH [3]: 94%
- Mutated/wild type (%); 5C9 100 µg/mL only [3]: 201%
- cyclic AMP; 5C9 0.01 µg/mL + TSH (fmol/cell well) [3]: 15700
- cyclic AMP; 5C9 0.1 µg/mL + TSH (fmol/cell well) [3]: 5580
- cyclic AMP; 5C9 1.0 µg/mL + TSH (fmol/cell well) [3]: 1930
- cyclic AMP; 5C9 10 µg/mL + TSH (fmol/cell well) [3]: 735
- cyclic AMP; 5C9 100 µg/mL + TSH (fmol/cell well) [3]: 1410
- cyclic AMP; 5C9 100 µg/mL only (fmol/cell well) [3]: 559
- cyclic AMP; 5C9 0.01 µg/mL + TSH (fmol/cell well) [4]: 17500
- cyclic AMP; 5C9 0.1 µg/mL + TSH (fmol/cell well) [4]: 6600
- cyclic AMP; 5C9 1.0 µg/mL + TSH (fmol/cell well) [4]: 3380
- cyclic AMP; 5C9 10 µg/mL + TSH (fmol/cell well) [4]: 1240
- cyclic AMP; 5C9 100 µg/mL + TSH (fmol/cell well) [4]: 1510
- cyclic AMP; 5C9 100 µg/mL only (fmol/cell well) [4]: 278
